Data taken from US20150203575A1 (Genentech, published 2015).

Key:
Assay in all cases: cDNA expression library screen with PILRα-AP supernatant on COS7 transfectants; positive clones further analysed by FACS
BR3 expressed on cells = biological target: T1, BR3 expressed on cells (human, UniProt Q96RJ3 1-184)
T1 construct: Clone of the Origene human cDNA library
T1 sequence: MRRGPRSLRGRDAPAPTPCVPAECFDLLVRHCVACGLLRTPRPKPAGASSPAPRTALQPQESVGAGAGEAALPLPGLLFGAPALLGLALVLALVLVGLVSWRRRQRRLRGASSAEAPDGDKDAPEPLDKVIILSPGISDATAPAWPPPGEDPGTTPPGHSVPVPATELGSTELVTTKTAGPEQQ
Procedure: (§1) COS7 cells were plated in a 24-well format and transfected with 10 ul of Origene library DNA (Origene, human DNA library containing 20 k genes) per well with Fugene 6 Reagent. Two days later, cells were incubated with human or mouse PILRα-Ap supernatants for 45 min at room temperature (RT). Then cells were fixed with 4% PFA for 15 min at RT. After removing fixation buffer, cells were blocked with 100 mM Glycine in HBS (20 mM Hepes, PH7.2, 150 mM NaCl) for 15 min at RT. Cells were then rinsed and incubated in HBS for 90 min at 65° C. HBS was removed and Western Blue Substrate (Promega) was added and color was developed for 30 min to 1 hr.

ETBR expressed on cells = biological target: T2, ETBR expressed on cells (human, UniProt P24530 27-442)
T2 construct: Clone of the Origene human cDNA library; also called Endothelin receptor type B
T2 sequence: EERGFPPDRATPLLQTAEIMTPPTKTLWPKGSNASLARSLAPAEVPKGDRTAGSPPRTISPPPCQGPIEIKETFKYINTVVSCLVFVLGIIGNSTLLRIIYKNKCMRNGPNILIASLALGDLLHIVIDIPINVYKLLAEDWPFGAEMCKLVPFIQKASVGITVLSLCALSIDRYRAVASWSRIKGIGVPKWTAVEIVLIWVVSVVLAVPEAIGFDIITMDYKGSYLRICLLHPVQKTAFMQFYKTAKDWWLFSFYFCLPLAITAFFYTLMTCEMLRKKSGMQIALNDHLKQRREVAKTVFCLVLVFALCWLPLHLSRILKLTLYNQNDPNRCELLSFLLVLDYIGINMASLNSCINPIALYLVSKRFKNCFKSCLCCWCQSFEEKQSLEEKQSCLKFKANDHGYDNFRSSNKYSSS
Procedure: as §1

[1] = biological target: T3, FceRII expressed on cells (human, UniProt P06734 1-321)
T3 construct: Clone of the Origene human cDNA library; also called FcRII
T3 sequence: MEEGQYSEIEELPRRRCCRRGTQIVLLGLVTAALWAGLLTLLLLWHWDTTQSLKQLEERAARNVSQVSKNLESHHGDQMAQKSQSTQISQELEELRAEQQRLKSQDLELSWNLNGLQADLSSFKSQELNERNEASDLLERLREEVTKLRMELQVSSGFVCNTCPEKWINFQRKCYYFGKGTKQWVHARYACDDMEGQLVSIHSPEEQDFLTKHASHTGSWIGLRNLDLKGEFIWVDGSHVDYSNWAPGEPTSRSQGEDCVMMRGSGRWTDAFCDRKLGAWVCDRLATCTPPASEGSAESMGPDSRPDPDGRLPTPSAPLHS
Procedure: as §1

[2] = biological target: T4, CLEC4G expressed on cells (human, UniProt Q6UXB4 1-293)
T4 construct: Clone of the Origene human cDNA library; also called C type lectin superfamily 4 member G
T4 sequence: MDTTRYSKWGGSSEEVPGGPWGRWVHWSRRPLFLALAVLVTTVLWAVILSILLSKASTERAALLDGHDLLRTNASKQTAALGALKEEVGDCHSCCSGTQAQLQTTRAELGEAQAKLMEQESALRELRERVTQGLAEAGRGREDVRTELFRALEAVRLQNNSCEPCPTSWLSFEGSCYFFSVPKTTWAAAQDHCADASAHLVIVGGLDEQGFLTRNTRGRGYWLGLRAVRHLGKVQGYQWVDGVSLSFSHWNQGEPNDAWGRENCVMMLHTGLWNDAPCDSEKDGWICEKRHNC
Procedure: as §1

APLP1 expressed on cells = biological target: T5, APLP1 expressed on cells (human, UniProt P51693 39-650)
T5 construct: Clone of the Origene human cDNA library; also called Amyloid beta precursor like protein 1
T5 sequence: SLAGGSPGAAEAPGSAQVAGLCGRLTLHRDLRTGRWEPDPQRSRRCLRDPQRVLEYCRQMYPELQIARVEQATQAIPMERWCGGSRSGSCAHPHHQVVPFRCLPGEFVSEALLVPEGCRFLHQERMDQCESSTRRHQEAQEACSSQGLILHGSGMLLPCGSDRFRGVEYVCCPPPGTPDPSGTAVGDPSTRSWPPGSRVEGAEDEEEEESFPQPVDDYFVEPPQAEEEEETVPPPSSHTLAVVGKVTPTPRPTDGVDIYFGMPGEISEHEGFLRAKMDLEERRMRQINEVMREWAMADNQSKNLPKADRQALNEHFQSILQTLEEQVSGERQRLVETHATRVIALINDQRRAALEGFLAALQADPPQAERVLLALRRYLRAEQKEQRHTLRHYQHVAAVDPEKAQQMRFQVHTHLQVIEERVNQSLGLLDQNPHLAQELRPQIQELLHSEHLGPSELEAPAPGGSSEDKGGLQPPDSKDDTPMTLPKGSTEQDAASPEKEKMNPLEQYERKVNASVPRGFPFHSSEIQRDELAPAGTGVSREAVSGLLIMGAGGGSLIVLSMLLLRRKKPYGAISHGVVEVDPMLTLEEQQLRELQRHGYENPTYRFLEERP
Procedure: as §1

[3] = biological target: T6, IL-2Ra expressed on cells (human, UniProt P01589 22-272)
T6 construct: Clone of the Origene human cDNA library; also called Interleukin 2 receptor alpha
T6 sequence: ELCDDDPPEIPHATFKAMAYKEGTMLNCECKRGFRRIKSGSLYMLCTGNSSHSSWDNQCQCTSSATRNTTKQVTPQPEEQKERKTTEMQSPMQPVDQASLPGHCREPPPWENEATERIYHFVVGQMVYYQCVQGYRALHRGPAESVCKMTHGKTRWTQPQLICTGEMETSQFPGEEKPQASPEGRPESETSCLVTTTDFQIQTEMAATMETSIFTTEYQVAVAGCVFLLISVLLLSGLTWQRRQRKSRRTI
Procedure: as §1

binding result (BR3 expressed on cells): binds | binding result (ETBR expressed on cells): binds | binding result [1]: binds | binding result [2]: binds | binding result (APLP1 expressed on cells): binds | binding result [3]: binds
B1: hPILRα-AP (other)
chain: QPSGSTGSGPSYLYGVTQPKHLSASMGGSVEIPFSFYYPWELATAPDVRISWRRGHFHRQSFYSTRPPSIHKDYVNRLFLNWTEGQKSGFLRISNLQKQDQSVYFCRVELDTRSSGRQQWQSIEGTKLSITQAVTTTTQRPSSMTTTWRLSSTTTTTGLRVTQGKRRSDSWHISLET
notes: Used as culture supernatant; also called human PILRα-AP; Alkaline phosphatase (AP)-tagged PILRα construct; not shown: C-terminal alkaline phosphatase (AP) tag
